From PMC5971111 (Nature structural & molecular biology, 2018)

B1: Sec8 (natural protein)
chain: MDYLKPAQKGRRRGLSINSLSETQQSAMNSSLDHLQNDLNRINLQWNRILSDNTNPLELALAFLDDTSVGLGHRYEEFNQLKSQIGSHLQDVVNEHSQVFNTNVASYGKAVSSIMQAQEQTLNLKNCLKEANEKITTDKGSLQELNDNNLKYTKMIDVLVNIEELLQIPEKIEENIRKENFHQVQILLERGFILMNNKSLKTVEILKPINQQLELQEHLLFNNLIEEIHDIMYSKSNKTNFTRVTNNDIFKIISISHNGFTSLENYLYNIVNIDIMEHSKTINKNLEQFIHDQSLNKGNIMLQENAATQAPLAPSRNQENEGFNRIGFLLKTINNINKLPVAFNIITERAKEEIHNIIVKSTESIRSKHPSLLKMATSLKNDNHFGLPVQDILSIILRECFWEIFLKLLYAIQCHRAIFEMSNILQPTSSAKPAFKFNKIWGKLLDEIELLLVRYINDPELISSNNGSIKPINGATNNAPTLPKRKNPKIFSLEYNIEDNSSVKDQAFELKALLKDIFPGFSVSSNMDLDSIYVKDESFEQDEPLVPPSVFNMKVILDPFLLFTQSTSTIVPSVLTQNTISSLTFFDDYMNKSFLPKIQMTMDYLFTVEVESNNPYALELSDENHNIFKTALDFQRLFYNLLNVFNTANTFREKISYCILDLLNHFYNYYLGLFNSLIGTSDRHLTRKIITAWLQNGILMDQEQKILNGDETLFHEESIELFKEIPHFYQAGKGLSKSDLFNNLTLDTILQFSASVLWILNWLPGLKKAINIDEVSQEPMLDADRLRSSWTFSESMDLNYSNPSSSPNSLGNLKILLDDKASKKFDETIDGFKTLKFKLITILRFNIRALCIYDIGSFFQNTKIWNMDVGSIELDQNIASLISELRRTESKLKQQLPEKEKNSIFIGLDIVNNYALIKGAKSIKVLNHNGIKKMLRNVNVLQHAYRNLSSEPSKINMNVTMNFYSLCGSSEAELFEYIKDNELPHCSVEDLKTILRLQFSEEMHRQLKRQSTSSTKGSIKPSNKRYTEALEKLSNLEKEQSKEGARTKIGKLKSKLNAVHTANEK
B2: Sec15 (natural protein)
chain: MDQEGQPLLSKDFQQVLLATASGNNSSWTERAVLNNESTDAVKHEPALGQNDVFDLDPLSFDKWVPFLRRALDKNQLDPVIDELENSIEDNFQGLELQLLQDSQMNDKLETSIDEIANIQGMVQDTLSSEISKFQIRLSESANELIVKKQMYVNNKKISLKISEATILITKVVRILELSSKCQELITERKFFKVLQNLDSLEKLYLQEFKNYNFQFLIEIYNSIPFLQKVTKDECINLIRNSLNLNLGKNLIKVGQEFVAIYENELLPQWLETRSKMKLTNFKFNSPIEISMRDESFLAKLNLGEFFQLDDFHDSIMIFQNLNELSVLSGEFNKEYELRKTKLMYPLIWKKNKTAAYQMDSLLRGTGTTPGSTAHDVSTDDPFTQSLSLHFLQDYFLKILGFLLYDINLNKATEFILVDNNYNSTNEFWDGLMDRLSPYLSYFIDEKLKTEEDMIKLKDFLCIYVAILENFKLNIEPLYKILVSIFEKFCSVSLRAFDDEFQILLNDDDFMPLSINDKTLYEKVLKICWMKEGEHLSLPDPTNGEPFAVTLPFSPLYPMTCTLAKKTYSKITAFLSIFYRHELHTLNNILVKTMDDIFNDIVNKKIRSKLESTSREEIAQILVNLDYFIIAAKEFSNFMTRENILQNPDMEIRLSSIKYLAESRKLAETKLIELIDSKISDILETIEIDWQITEVRQDPDISIIDLAQFLEMMFASTLQNLPYSVQTLLIFREFDSLTRQFMGLLLHDTPSTITHESIMNFEVDVNYLESIIPRIFPSTPGTIDSNGYQSPMTPSTPTFPNANGVDAPTLFENNIKSLEATFMELKQCIELLKTQGKDYNEPEIRLRKYSRIRQEDAALLLSKIQHFVSSVEGANGDDTSVMDSSSIFNSESASVIDSNTSRIAKFFNRR
B3: Sec5 (natural protein)
chain: MDRFQIGDEQLLRFYQLKTINPTHSWAQDSSKLNNEEATSNELGVETSFDILKDFKYGNQISIDKESRAYLNDESLSYIRDPLNGQEMSKELQHLPNDSMRLNYLVNSKQFNVKAFLRDMHKQDSFNDLNNSLDRLDSDIQDQSIHLKQLVGKNFTKYVKIKNKLDQIYKEFDEKTNEKNQCDSPKENQINVESLNKKVDEVIRTTTFKLKPLMDNYQKILNYQATKKFIELNKFYFNLPKSLKRCLTNNDFNEFIIEYSKGLTLRRRFNQSSDASQSLVIKRIWTQIENLLVTYKDLIWNSLINSNFNIDQPQETILSLFSKLLNLENFINNNQRESESGNKNTTSSSNENPILRWMSIKMNGFQNELNELSGHMISKIIHSQRLILQNNTNQDKSQGCVELSYYLKINQLFQIISDTGKDSEGLKSTVEPNKVNTISGTSYLNLNCQPSSQGLTDSPTIIEMWLLILKYINDLWKICDQFIEFWEHIEKFLDGTYQNSIINEKRKENILIGDSNIIESYQKSLILKEEQINEVRLKGEEFITSVSQNLISFFTSSQSSLPSSLKDSTGDITRSNKDSGSPLDYGFIPPNCNGLSCLRYLPKIVEPILKFSTELAQLNITTNGITICRNTLSTIINRCVGAISSTKLRDISNFYQLENWQVYETVTFSSKSQDSSKNLTFEYGVTQFPEIVTSFQEVSIKTTRDLLFAYEKLPIINGISVVSYPSKQLLTGIEIQQIISMEAVLEAILKNAAKDKDNPRNSHTILTLTNLQYFRECAFPNILQYFDDAFEWNLASKNLELFSLLSKMESSIFGNYLSDLKINLRDTLEEKFHEINWPMYTSNSFRVGDYIIEALMILIVVHSECFRIGPQLIHKILIETQIFIARYLFEAFKPYVGNLSNDGSLQIIVDLEFFQKVMGPLLEKDTEATLRACLQNCFQNDTNRLQKCINEINPIVSANLKRTAIQFAAFS

Key:
Sec3 = biological target: T1, Sec3 (S. cerevisiae, UniProt P33332 1-1336); assay: […]
T1 sequence: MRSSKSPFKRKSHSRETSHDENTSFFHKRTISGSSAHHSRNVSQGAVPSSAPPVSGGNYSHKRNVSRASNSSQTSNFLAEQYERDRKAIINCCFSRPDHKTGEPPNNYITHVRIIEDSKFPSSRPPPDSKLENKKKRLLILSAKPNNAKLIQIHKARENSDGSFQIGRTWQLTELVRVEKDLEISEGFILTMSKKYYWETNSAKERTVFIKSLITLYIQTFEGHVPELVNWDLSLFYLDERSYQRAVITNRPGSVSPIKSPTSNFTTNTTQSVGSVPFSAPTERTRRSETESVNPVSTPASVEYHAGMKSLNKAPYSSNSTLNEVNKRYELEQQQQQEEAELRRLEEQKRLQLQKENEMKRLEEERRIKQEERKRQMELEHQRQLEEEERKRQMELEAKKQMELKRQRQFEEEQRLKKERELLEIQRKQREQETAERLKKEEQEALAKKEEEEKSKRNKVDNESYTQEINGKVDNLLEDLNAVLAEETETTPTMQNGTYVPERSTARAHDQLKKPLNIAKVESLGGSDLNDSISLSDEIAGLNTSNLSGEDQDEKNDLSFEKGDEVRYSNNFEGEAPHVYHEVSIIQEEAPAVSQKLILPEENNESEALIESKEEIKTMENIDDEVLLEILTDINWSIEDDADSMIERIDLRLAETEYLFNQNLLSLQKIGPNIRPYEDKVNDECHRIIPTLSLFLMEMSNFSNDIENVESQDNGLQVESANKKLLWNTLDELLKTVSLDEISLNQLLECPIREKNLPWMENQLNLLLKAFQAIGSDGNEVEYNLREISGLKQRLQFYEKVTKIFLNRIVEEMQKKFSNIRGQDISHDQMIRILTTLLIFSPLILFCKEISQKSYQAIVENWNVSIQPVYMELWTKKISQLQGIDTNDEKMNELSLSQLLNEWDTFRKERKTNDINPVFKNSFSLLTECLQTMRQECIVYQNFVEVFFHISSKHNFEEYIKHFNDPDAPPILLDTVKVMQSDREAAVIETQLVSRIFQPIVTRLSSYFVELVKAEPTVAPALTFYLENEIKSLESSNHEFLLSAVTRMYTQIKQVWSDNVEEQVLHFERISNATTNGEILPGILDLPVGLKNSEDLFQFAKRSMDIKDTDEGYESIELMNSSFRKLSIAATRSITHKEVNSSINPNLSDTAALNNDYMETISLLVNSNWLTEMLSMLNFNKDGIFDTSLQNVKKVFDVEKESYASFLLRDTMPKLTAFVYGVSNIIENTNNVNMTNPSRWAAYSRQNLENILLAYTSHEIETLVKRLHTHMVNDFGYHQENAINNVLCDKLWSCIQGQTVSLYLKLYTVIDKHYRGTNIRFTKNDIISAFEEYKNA

Sec8 = biological target: B1; assay: […]

Binder | binding result (Sec3) | binding result (Sec8)
B1 | binds | 
B2 |  | binds
B3 | binds | binds
